Values quoted from earlier work, collected in patent publication US5747458A, “Urokinase receptor ligands” (Chiron Corporation, priority 1995, dated 1998).

Experiments:
uPAR = uPAR (Homo sapiens, UniProt Q03405)
uPA:uPAR interaction = uPA:uPAR interaction (Homo sapiens, UniProt Q03405)
Sequence of uPA:uPAR interaction (Q03405 23-305 limits assumed): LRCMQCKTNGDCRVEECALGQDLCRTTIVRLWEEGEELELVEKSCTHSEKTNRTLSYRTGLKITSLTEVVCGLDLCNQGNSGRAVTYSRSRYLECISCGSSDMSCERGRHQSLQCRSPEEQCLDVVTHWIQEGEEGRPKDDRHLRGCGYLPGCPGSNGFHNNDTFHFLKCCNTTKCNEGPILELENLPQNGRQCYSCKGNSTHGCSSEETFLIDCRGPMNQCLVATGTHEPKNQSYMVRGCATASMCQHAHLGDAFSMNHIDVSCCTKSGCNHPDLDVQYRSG

Sequence of uPAR (Q03405 23-335, species assumed): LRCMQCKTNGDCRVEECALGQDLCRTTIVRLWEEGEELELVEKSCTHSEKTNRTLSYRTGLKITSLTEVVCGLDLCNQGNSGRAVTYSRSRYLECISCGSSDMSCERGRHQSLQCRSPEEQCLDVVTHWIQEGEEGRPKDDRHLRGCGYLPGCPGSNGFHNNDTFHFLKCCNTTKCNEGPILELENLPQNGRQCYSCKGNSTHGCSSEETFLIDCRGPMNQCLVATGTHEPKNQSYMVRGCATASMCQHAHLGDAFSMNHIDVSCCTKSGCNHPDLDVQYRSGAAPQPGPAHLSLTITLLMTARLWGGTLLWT

Compound | affinity relative to intact ATF (fold less) (uPAR; compared with intact ATF) | Kd (uPAR; read-out: affinity for uPAR) [nM] | effective concentration for inhibiting the uPA:uPAR interaction (uPA:uPAR interaction)
uPA12-32: critical binding domain alone, residues 12-32 of the EGF-like domain of uPA (DCLNGGTCVSNKYFSNIHWCN; UniProt P00749 32-52, looked up, fragment) | about 100 fold | 40 | 
O=S(=O)(O)c1cccc2cccc(Nc3ccccc3)c12 [8-anilinonaphthalene sulfonic acid] |  |  | effective only at micromolar concentrations
Cc1ccc(C(=O)Nc2ccc(S(=O)(=O)O)c3cc(S(=O)(=O)O)cc(S(=O)(=O)O)c23)cc1NC(=O)c1cccc(NC(=O)Nc2cccc(C(=O)Nc3cc(C(=O)Nc4ccc(S(=O)(=O)O)c5cc(S(=O)(=O)O)cc(S(=O)(=O)O)c45)ccc3C)c2)c1 [suramin] |  |  | effective only at micromolar concentrations
